The results in this text go back to publication PMC10470207, “Activation of human RNA lariat debranching enzyme Dbr1 by binding protein TTDN1 occurs though an intrinsically disordered C-terminal domain” (The Journal of Biological Chemistry, 2023).

Data set [1] deals with the molecule itself. Description: AUC; proteins diluted to 0.9 A280 in Q-A buffer (20 mM Tris pH 8, 50 mM NaCl, 1 mM TCEP); 40,000 RPM; analysed with Ultrascan.
Data set [2] addresses T1, human RNA lariat debranching enzyme Dbr1, full-length (1-544) (human, UniProt Q9UK59 1-544).
T1 sequence (looked up): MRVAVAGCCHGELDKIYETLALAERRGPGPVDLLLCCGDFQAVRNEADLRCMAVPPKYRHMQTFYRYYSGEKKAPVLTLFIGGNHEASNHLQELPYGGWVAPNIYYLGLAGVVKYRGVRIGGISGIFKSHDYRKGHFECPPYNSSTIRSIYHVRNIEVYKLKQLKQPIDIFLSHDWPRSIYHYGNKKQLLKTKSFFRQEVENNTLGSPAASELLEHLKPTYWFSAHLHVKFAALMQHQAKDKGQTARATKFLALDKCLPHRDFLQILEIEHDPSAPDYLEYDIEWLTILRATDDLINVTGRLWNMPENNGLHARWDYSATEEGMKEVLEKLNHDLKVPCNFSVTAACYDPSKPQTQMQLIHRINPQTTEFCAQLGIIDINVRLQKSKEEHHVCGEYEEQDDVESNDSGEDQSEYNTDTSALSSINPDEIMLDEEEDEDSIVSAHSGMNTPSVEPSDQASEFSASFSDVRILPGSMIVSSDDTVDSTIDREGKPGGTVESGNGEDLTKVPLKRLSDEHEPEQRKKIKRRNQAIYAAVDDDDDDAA
Description: cell-based or functional assay.

The target of data set [3] is T1, human RNA lariat debranching enzyme …. Description: fluorescence polarisation; fluorescein-labeled TTDN1 fixed at 2.5 nM; unlabeled Dbr1 titrated (3-fold dilution from 2.8 uM to 1 nM) or Drn1 at 225 nM; SEC buffer; black 96-well half-area plates. Conditions: both partners purified.
For data set [4] the target is unchanged. Put plainly: SEC; Superdex 200-Increase 10/300 in SEC buffer (50 mM Tris pH 8, 100 mM NaCl, 1 mM TCEP); about 100 ug Dbr1 injected, Drn1 added at an equimolar ratio; peak fraction on a Coomassie-stained denaturing gel. The conditions noted are these: both partners purified.

B1: human Dbr1 truncated after residue 502 (Dbr1-502) (domain or fragment, UniProt Q9UK59 1-502, looked up)
chain: MRVAVAGCCHGELDKIYETLALAERRGPGPVDLLLCCGDFQAVRNEADLRCMAVPPKYRHMQTFYRYYSGEKKAPVLTLFIGGNHEASNHLQELPYGGWVAPNIYYLGLAGVVKYRGVRIGGISGIFKSHDYRKGHFECPPYNSSTIRSIYHVRNIEVYKLKQLKQPIDIFLSHDWPRSIYHYGNKKQLLKTKSFFRQEVENNTLGSPAASELLEHLKPTYWFSAHLHVKFAALMQHQAKDKGQTARATKFLALDKCLPHRDFLQILEIEHDPSAPDYLEYDIEWLTILRATDDLINVTGRLWNMPENNGLHARWDYSATEEGMKEVLEKLNHDLKVPCNFSVTAACYDPSKPQTQMQLIHRINPQTTEFCAQLGIIDINVRLQKSKEEHHVCGEYEEQDDVESNDSGEDQSEYNTDTSALSSINPDEIMLDEEEDEDSIVSAHSGMNTPSVEPSDQASEFSASFSDVRILPGSMIVSSDDTVDSTIDREGKPGGTVESGNG
notes: source: E. coli, purified
In the case of B1, in data set [1], the binding result is listed as “binds”.

B2: human Dbr1 truncated after residue 399 (Dbr1-399) (domain or fragment, UniProt Q9UK59 1-399, looked up)
chain: MRVAVAGCCHGELDKIYETLALAERRGPGPVDLLLCCGDFQAVRNEADLRCMAVPPKYRHMQTFYRYYSGEKKAPVLTLFIGGNHEASNHLQELPYGGWVAPNIYYLGLAGVVKYRGVRIGGISGIFKSHDYRKGHFECPPYNSSTIRSIYHVRNIEVYKLKQLKQPIDIFLSHDWPRSIYHYGNKKQLLKTKSFFRQEVENNTLGSPAASELLEHLKPTYWFSAHLHVKFAALMQHQAKDKGQTARATKFLALDKCLPHRDFLQILEIEHDPSAPDYLEYDIEWLTILRATDDLINVTGRLWNMPENNGLHARWDYSATEEGMKEVLEKLNHDLKVPCNFSVTAACYDPSKPQTQMQLIHRINPQTTEFCAQLGIIDINVRLQKSKEEHHVCGEYEEQ
notes: source: E. coli, purified
Regarding B2, the binding result in data set [1] was “binds”.

B3: trichothiodystrophy nonphotosensitive 1 (TTDN1), fluorescein-labeled (natural protein, UniProt Q8TAP9 1-179, looked up)
chain: MQRQNFRPPTPPYPGPGGGGWGSGSSFRGTPGGGGPRPPSPRDGYGSPHHTPPYGPRSRPYGSSHSPRHGGSFPGGRFGSPSPGGYPGSYSRSPAGSQQQFGYSPGQQQTHPQGSPRTSTPFGSGRVREKRMSNELENYFKPSMLEDPWAGLEPVSVVDISQQYSNTQTFTGKKGRYFC
modifications: 5-iodoacetamido-fluorescein label on the cysteine residue at the C terminus
notes: trichothiodystrophy nonphotosensitive 1 (TTDN1); codon-optimized expression plasmid ordered from GenScript; The debranching (functional) assays used unlabeled, GuHCl-solubilized TTDN1 of the same construct; also called labeled TTDN1
Consider B3, for which the “catalytic efficiency of Dbr1 debranching of a fluorescent branched RNA substrate, TTDN1:Dbr1 mixture at 10:1 molar ratio (unlabeled, GuHCl-solubilized TTDN1), relative to Dbr1 alone” value in data set [2] came to 19 fold. Moreover, the Kd in data set [3] is ~3 nM.

B4: Drn1 (human Drn1 homolog, Cwf19-L1) (natural protein, UniProt Q69YN2 1-538, looked up)
chain: MAQKPLRLLACGDVEGKFDILFNRVQAIQKKSGNFDLLLCVGNFFGSTQDAEWEEYKTGIKKAPIQTYVLGANNQETVKYFQDADGCELAENITYLGRKGIFTGSSGLQIVYLSGTESLNEPVPGYSFSPKDVSSLRMMLCTTSQFKGVDILLTSPWPKCVGNFGNSSGEVDTKKCGSALVSSLATGLKPRYHFAALEKTYYERLPYRNHIILQENAQHATRFIALANVGNPEKKKYLYAFSIVPMKLMDAAELVKQPPDVTENPYRKSGQEASIGKQILAPVEESACQFFFDLNEKQGRKRSSTGRDSKSSPHPKQPRKPPQPPGPCWFCLASPEVEKHLVVNIGTHCYLALAKGGLSDDHVLILPIGHYQSVVELSAEVVEEVEKYKATLRRFFKSRGKWCVVFERNYKSHHLQLQVIPVPISCSTTDDIKDAFITQAQEQQIELLEIPEHSDIKQIAQPGAAYFYVELDTGEKLFHRIKKNFPLQFGREVLASEAILNVPDKSDWRQCQISKEDEETLARRFRKDFEPYDFTLDD
notes: human Drn1 homolog (Cwf19-L1); cDNA purchased from Genecopoeia, subcloned into a modified pET vector; source: E. coli BL21, purified (Ni column, Superdex-200)
For the molecule B4, the “stoichiometry N” value in data set [4] turned out to be 1.
